This passage reports EC50 results from patent US20240343809A1 (EXCELMAB, published 2024).

T1: human B7-H3 antigen, recombinant extracellular domain (ECD) (29-461) (human, UniProt Q5ZPR3 29-461)
T1 construct: range 29-461; Expressed in 293F cells as B7-H3-TEV-cFc-His fusion, cut with TEV protease and cleaned over a nickel column to give the human B7-H3 antigen; also called recombinant human B7-H3 antigen; hB7-H3
T1 sequence (looked up): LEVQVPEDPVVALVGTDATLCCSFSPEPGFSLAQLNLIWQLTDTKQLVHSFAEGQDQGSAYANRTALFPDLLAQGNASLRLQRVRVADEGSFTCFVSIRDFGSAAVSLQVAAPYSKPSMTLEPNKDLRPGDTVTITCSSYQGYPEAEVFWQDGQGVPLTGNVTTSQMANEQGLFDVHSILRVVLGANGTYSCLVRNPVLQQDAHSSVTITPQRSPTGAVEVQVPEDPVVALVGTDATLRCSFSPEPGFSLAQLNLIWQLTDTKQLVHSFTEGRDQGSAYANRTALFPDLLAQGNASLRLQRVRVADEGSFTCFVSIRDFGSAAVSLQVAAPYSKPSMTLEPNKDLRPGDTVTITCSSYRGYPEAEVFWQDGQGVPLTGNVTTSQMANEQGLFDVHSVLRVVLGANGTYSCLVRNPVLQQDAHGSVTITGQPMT

B1: affinity-matured B7-H3 antibody 42A1 (antibody, V domains shown)
VH: QVQLVQSGAEVKKPGSSVKVSCKASGGTGGIYLINWVRQAPGQGLEWMGGIIPLFGTANYAQKFQGRVTITADESTSTAYMELSSLRSDDTAVYYCARDQVVATSGVNFGMDVWGQGTTVTVSS
VL: DIQMTQEPSLTTSPGGTVTLTCRSSTGAVTTSNYANWVQEKPGQAPRGLIGGTNKRAPGTPARFSGSLIGGKAALTITGVQPEDEAIYFCALWYSNLWVFGGGTKLEIK
notes: Full antibody expressed in 293F cells, protein A purified; VH assembled from the framework and CDR entries
B2: affinity-matured B7-H3 antibody 46D4 (antibody, V domains shown)
VH: B1 VH with G29F, G30S, I31N, L33A, Q100V, A103P, T104R
VL: B1 VL
notes: as for B1
B3: affinity-matured B7-H3 antibody 43G5 (antibody, V domains shown)
VH: B1 VH with G29V, G30R, I31P, Y32A
VL: B1 VL
notes: as for B1
B4: affinity-matured B7-H3 antibody 42F7 (antibody, V domains shown)
VH: B1 VH with G29R, G30P, I31A, Y32A
VL: B1 VL
notes: as for B1
B5: affinity-matured B7-H3 antibody 48D10 (antibody, V domains shown)
VH: B1 VH with G29R, G30P, I31A, Y32A
VL: B1 VL
notes: as for B1
B6: affinity-matured B7-H3 antibody 43G11 (antibody, V domains shown)
VH: B1 VH with G29L, G30R, I31P, Y32V
VL: B1 VL
notes: as for B1
B7: affinity-matured B7-H3 antibody 47H4 (antibody, V domains shown)
VH: B1 VH with G29F, G30S, I31N, L33A, Q100F, V101D, V102A, A103P, T104G
VL: B1 VL
notes: as for B1
B8: affinity-matured B7-H3 antibody 46H9 (antibody, V domains shown)
VH: B1 VH with G29F, G30S, I31N, L33A, Q100R, V101E, V102A, A103R, T104E
VL: B1 VL
notes: as for B1
B9: affinity-matured B7-H3 antibody 50B10 (antibody, V domains shown)
VH: B1 VH with G29F, G30S, I31N, L33A, Q100V, V101E, A103F, T104N
VL: B1 VL
notes: as for B1
B10: affinity-matured B7-H3 antibody 48A6 (antibody, V domains shown)
VH: B1 VH with G29R, G30P, I31P, Y32A
VL: B1 VL
notes: as for B1
B11: affinity-matured B7-H3 antibody 50A4 (antibody, V domains shown)
VH: B1 VH with G29F, G30S, I31N, L33A, Q100E, A103V, T104G
VL: B1 VL
notes: as for B1
B12: affinity-matured B7-H3 antibody 45F4 (antibody, V domains shown)
VH: B1 VH with G29F, G30S, I31N, L33A, G56R, T57S, A58S
VL: B1 VL
notes: as for B1
B13: affinity-matured B7-H3 antibody 44F2 (antibody, V domains shown)
VH: B1 VH with G29F, G30S, I31N, L33A, L54G, G56Y, T57S, A58L
VL: B1 VL
notes: as for B1
B14: affinity-matured B7-H3 antibody 49B2 (antibody, V domains shown)
VH: B1 VH with G29F, G30S, I31N, L33A, L54N, G56H, T57S, A58S
VL: B1 VL
notes: as for B1
B15: affinity-matured B7-H3 antibody 49H5 (antibody, V domains shown)
VH: B1 VH with G29F, G30S, I31N, L33A, L54D, G56N, T57S
VL: B1 VL
notes: as for B1
B16: affinity-matured B7-H3 antibody 50A1 (antibody, V domains shown)
VH: B1 VH with G29F, G30S, I31N, L33A, A103P, T104L
VL: B1 VL
notes: as for B1
B17: affinity-matured B7-H3 antibody 49C8 (antibody, V domains shown)
VH: B1 VH with G29F, G30S, I31N, L33A, L54K, G56R, T57S, A58Q
VL: B1 VL
notes: as for B1
B18: affinity-matured B7-H3 antibody 50E3 (antibody, V domains shown)
VH: B1 VH with G29F, G30S, I31N, L33A, Q100V, V101N, V102N, A103P, T104G
VL: B1 VL
notes: as for B1
B19: affinity-matured B7-H3 antibody 44C5 (antibody, V domains shown)
VH: B1 VH with G29F, G30S, I31N, L33A, L54R, T57G, A58V
VL: B1 VL
notes: as for B1
B20: affinity-matured B7-H3 antibody 47C8 (antibody, V domains shown)
VH: B1 VH with G29F, G30S, I31N, L33A, Q100I, V101E, A103M, T104A
VL: B1 VL
notes: as for B1
B21: affinity-matured B7-H3 antibody 49E1 (antibody, V domains shown)
VH: B1 VH with G29F, G30S, I31N, L33A, L54V, G56R, T57S, A58V
VL: B1 VL
notes: as for B1
B22: affinity-matured B7-H3 antibody 49C3 (antibody, V domains shown)
VH: B1 VH with G29F, G30S, I31N, L33A, L54N, G56E, T57S, A58V
VL: B1 VL
notes: as for B1
B23: affinity-matured B7-H3 antibody 50A6 (antibody, V domains shown)
VH: B1 VH with G29F, G30S, I31N, L33A, Q100A, A103P, T104N
VL: B1 VL
notes: as for B1
B24: affinity-matured B7-H3 antibody 46H7 (antibody, V domains shown)
VH: B1 VH with G29F, G30S, I31N, L33A, Q100R, V101F, V102T, A103P, T104R
VL: B1 VL
notes: as for B1
B25: affinity-matured B7-H3 antibody 43D4 (antibody, V domains shown)
VH: B1 VH with G29S, I31V, Y32A
VL: B1 VL
notes: as for B1
B26: affinity-matured B7-H3 antibody 45B11 (antibody, V domains shown)
VH: B1 VH with G29F, G30S, I31N, L33A, L54M, F55W, G56Q, T57S, A58V
VL: B1 VL
notes: as for B1
B27: affinity-matured B7-H3 antibody 48B12 (antibody, V domains shown)
VH: B1 VH with G29T, I31R
VL: B1 VL
notes: as for B1
B28: affinity-matured B7-H3 antibody 49F6 (antibody, V domains shown)
VH: B1 VH with G29F, G30S, I31N, L33A, L54G, G56D, T57A, A58V
VL: B1 VL
notes: as for B1
B29: affinity-matured B7-H3 antibody 49D12 (antibody, V domains shown)
VH: B1 VH with G29F, G30S, I31N, L33A, L54R, G56A, T57S, A58R
VL: B1 VL
notes: as for B1
B30: affinity-matured B7-H3 antibody 48E9 (antibody, V domains shown)
VH: B1 VH with I31A
VL: B1 VL
notes: as for B1
B31: affinity-matured B7-H3 antibody 49C7 (antibody, V domains shown)
VH: B1 VH with G29F, G30S, I31N, L33A, L54N, G56Y, T57S, A58V
VL: B1 VL
notes: as for B1
B32: affinity-matured B7-H3 antibody 48G2 (antibody, V domains shown)
VH: B1 VH with G29S, G30R, I31P, Y32V
VL: B1 VL
notes: as for B1
B33: affinity-matured B7-H3 antibody 50A11 (antibody, V domains shown)
VH: B1 VH with G29F, G30S, I31N, L33A, A103P, T104R
VL: B1 VL
notes: as for B1
B34: Enoblituzumab (antibody, V domains shown)
VH: EVQLVESGGGLVQPGGSLRLSCAASGFTFSSFGMHWVRQAPGKGLEWVAYISSDSSAIYYADTVKGRFTISRDNAKNSLYLQMNSLRDEDTAVYYCGRGRENIYYGSRLDYWGQGTTVTVSS
VL: DIQLTQSPSFLSASVGDRVTITCKASQNVDTNVAWYQQKPGKAPKALIYSASYRYSGVPSRFSGSGSGTDFTLTISSLQPEDFATYYCQQYNNYPFTFGQGTKLEIKR

Changes are numbered by the printed parent chain.

This assay addresses T1, human B7-H3 antigen, recombinant …. Briefly: ELISA, coated human B7-H3 antigen. As to the method:
The binding activity of the 5D9 to B7-H3 antigen was analyzed by ELISA. Human B7-H3 antigens were coated on the 96-well plate and placed at 4° C. overnight. The antibody 5D9 and controls were diluted to 10 μg/mL, followed by 4-fold dilution gradients to generate a total of 8 different concentrations. The diluted samples and the wells coated antigen were incubated for 1h. After washing, HRP (horseradish peroxidase)-labeled goat anti-human IgG (H+L) secondary antibody was added to the plate and incubated for 1h. TMB (3,3′,5,5′-tetramethylbenzidine) solution was then added to each well after washing for chromogenesis. The absorbance was measured at OD₄₅₀ₙₘ with a microplate reader. Taking the logarithmic value of the sample concentration as the X-axis, and the absorbance OD₄₅₀ₙₘ value as the Y-axis, a dose-response curve was drawn to calculate the EC₅₀. The EC₅₀ represents the binding activity of the antibody to B7-H3 antigen. A negative control IgG group and a positive antibody Enoblituzumab control group were meanwhile set in the experiment.
ELISA was used to analyze the binding activity of affinity-matured variants to human B7-H3 antigen. By taking the logarithmic value of the sample concentration as the X-axis, and the absorbance OD₄₅₀ₙₘ value as the Y-axis, a dose-response curve was drawn to calculate the EC₅₀. The EC₅₀ represents the binding activity of the affinity-matured variants to B7-H3 antigen. A positive control Enoblituzumab and a negative control hIgG were set in the experiment.
Turning to B1, the EC50 is 0.0354 µg/mL.

Consider B2, for which the EC50 amounted to 0.0283 µg/mL. The same measure for B3: 0.0279 µg/mL. The value for B4 was 0.0278 µg/mL. The same measure for B5: 0.0251 µg/mL. Regarding B6, the EC50 was 0.0411 µg/mL. Turning to B7, the half-maximal effective concentration (EC50) is 0.0244 µg/mL.

As to B8, the concentration giving a half-maximal response (EC50) came out at 0.147 µg/mL. Take B9: the EC50 came to 0.0278 µg/mL.

For B10, the EC50 came to 0.0272 µg/mL. The same measure for B11: 0.0274 µg/mL; for B12: 0.0219 µg/mL; for B13: 0.0464 µg/mL.

B14: the 50% effective concentration (EC50) amounted to 0.0286 µg/mL. The same measure for B15: 0.0336 µg/mL; for B16: 0.0321 µg/mL; for B17: 0.0285 µg/mL.

As for B18, the EC50 amounted to 0.0418 µg/mL. The same measure for B19: 0.0639 µg/mL; for B20: 0.0426 µg/mL. The same measure for B21: 0.0261 µg/mL.

On to B22, for which the 50% effective concentration (EC50) came out at 0.0245 µg/mL. Regarding B23, the EC50 worked out at 0.0247 µg/mL. Regarding B24, the EC50 is 0.039 µg/mL. The value for B25 was 0.0303 µg/mL; that for B26 was 0.0265 µg/mL.

As to B27, the EC50 came out at 0.0259 µg/mL. The value for B28 was 0.0309 µg/mL; that for B29 was 0.0219 µg/mL; that for B30 was 0.0438 µg/mL. The same measure for B31: 0.033 µg/mL. The same measure for B32: 0.0303 µg/mL; for B33: 0.0339 µg/mL. For B34, the EC50 was determined as 0.0255 µg/mL.
